# Laboratory results taken from IntAct's records for PubMed 29039417.
# B1: BBSome complex member BBS2 (Homo sapiens), Q9BXC9 (parent)
# chain: MLLPVFTLKLRHKISPRMVAIGRYDGTHPCLAAATQTGKVFIHNPHTRNQHVSASRVFQSPLESDVSLLSINQAVSCLTAGVLNPELGYDALLVGTQTNLLAYDVYNNSDLFYREVADGANAIVLGTLGDISSPLAIIGGNCALQGFNHEGSDLFWTVTGDNVNSLALCDFDGDGKKELLVGSEDFDIRVFKEDEIVAEMTETEIVTSLCPMYGSRFGYALSNGTVGVYDKTSRYWRIKSKNHAMSIHAFDLNSDGVNELITGWSNGKVDARSDRTGEVIFKDNFSSAIAGVVEGDYRMDGHIQLICCSVDGEIRGYLPGTAEMRGNLMDTSAEQDLIRELSQKKQNLLLELRNYEENAKAELASPLNEADGHRGIIPANTRLHTTLSVSLGNETQTAHTELRISTSNDTIIRAVLIFAEGIFTGESHVVHPSIHNLSSSICIPIVPPKDVPVDLHLKAFVGYRSSTQFHVFESTRQLPRFSMYALTSLDPASEPISYVNFTIAERAQRVVVWLGQNFLLPEDTHIQNAPFQVCFTSLRNGGHLHIKIKLSGEITINTDDIDLAGDIIQSMASFFAIEDLQVEADFPVYFEELRKVLVKVDEYHSVHQKLSADMADHSNLIRSLLVGAEDARLMRDMKTMKSRYMELYDLNRDLLNGYKIRCNNHTELLGNLKAVNQAIQRAGRLRVGKPKNQVITACRDAIRSNNINTLFKIMRVGTASS
# partner: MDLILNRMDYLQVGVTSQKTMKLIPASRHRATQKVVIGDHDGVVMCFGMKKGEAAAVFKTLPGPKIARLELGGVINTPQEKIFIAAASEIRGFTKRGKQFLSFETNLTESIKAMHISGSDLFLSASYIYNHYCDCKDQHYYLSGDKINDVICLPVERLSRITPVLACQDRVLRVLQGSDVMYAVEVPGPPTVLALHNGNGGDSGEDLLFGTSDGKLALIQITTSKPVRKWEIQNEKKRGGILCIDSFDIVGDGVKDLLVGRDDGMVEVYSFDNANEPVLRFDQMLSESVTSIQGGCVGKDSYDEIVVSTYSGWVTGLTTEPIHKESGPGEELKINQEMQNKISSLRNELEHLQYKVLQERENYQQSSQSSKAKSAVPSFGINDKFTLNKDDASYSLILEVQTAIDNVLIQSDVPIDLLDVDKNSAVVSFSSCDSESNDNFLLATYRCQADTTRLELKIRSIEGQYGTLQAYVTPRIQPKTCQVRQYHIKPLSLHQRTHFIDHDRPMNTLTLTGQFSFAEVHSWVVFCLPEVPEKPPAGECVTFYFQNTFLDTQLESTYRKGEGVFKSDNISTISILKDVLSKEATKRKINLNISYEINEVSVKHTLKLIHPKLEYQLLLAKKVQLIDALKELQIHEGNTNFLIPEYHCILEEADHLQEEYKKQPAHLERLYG
# Variants of: B1
# Settings: with BBS7, Q8IWZ6-2
row,effect of a mutation on the interaction,Variant
1,with no effect,R413A
2,with no effect,R413E
3,with no effect,R413K
4,with no effect,I422E
5,with no effect,I422K
6,with no effect,I422A
7,with no effect,S439E
8,with no effect,S439A
9,with no effect,S439K
10,with no effect,A419K
11,with no effect,A419E
12,disrupting interaction strength,N408S
13,with no effect,N408A
14,with no effect,N408K
15,with no effect,N408E
16,with no effect,C442K
17,with no effect,C442E
18,with no effect,C442A
19,with no effect,V451A
20,with no effect,V451E
21,with no effect,V451K
22,with no effect,I434E
23,with no effect,I434K
24,with no effect,I434A
25,with no effect,T406E

row,effect of a mutation on the interaction,Variant
1,with no effect,T406K
2,with no effect,T406A
3,disrupting interaction strength,L455E
4,with no effect,L455K
5,with no effect,L455A
6,with no effect,S407K
7,with no effect,S407A
8,with no effect,S407E
9,with no effect,I441A
10,disrupting interaction strength,I441R
11,with no effect,I441K
12,disrupting interaction strength,I441E
13,with no effect,S405K
14,with no effect,S405E
15,with no effect,S405A
16,with no effect,H431E
17,with no effect,H431K
18,with no effect,H431A
19,with no effect,I412K
20,with no effect,I412A
21,disrupting interaction strength,I412R
22,with no effect,I412E
23,disrupting interaction strength,L437K
24,with no effect,L437A
25,with no effect,L437E

row,effect of a mutation on the interaction,Variant
1,with no effect,G425E
2,with no effect,G425K
3,with no effect,G425A
4,with no effect,R403E
5,with no effect,R403K
6,with no effect,R403A
7,with no effect,H435E
8,with no effect,H435K
9,with no effect,H435A
10,with no effect,N436A
11,with no effect,N436K
12,with no effect,N436E
13,with no effect,H456K
14,with no effect,H456A
15,with no effect,H456E
16,with no effect,I443E
17,disrupting interaction strength,I443K
18,with no effect,I443A
19,with no effect,P444A
20,with no effect,P444K
21,with no effect,P444E
22,disrupting interaction strength,D450K
23,with no effect,D450A
24,with no effect,D450E
25,with no effect,P432E

row,effect of a mutation on the interaction,Variant
1,with no effect,P432A
2,with no effect,P432K
3,with no effect,D454A
4,with no effect,D454E
5,with no effect,D454K
6,with no effect,T424A
7,with no effect,T424K
8,with no effect,T424E
9,with no effect,S438E
10,with no effect,S438A
11,with no effect,S438K
12,with no effect,I411E
13,with no effect,I411K
14,with no effect,I411A
15,with no effect,V430A
16,with no effect,V430E
17,with no effect,V430K
18,with no effect,E420K
19,with no effect,E420A
20,with no effect,V446A
21,with no effect,V446K
22,with no effect,V446E
23,with no effect,K458E
24,with no effect,K458A
25,with no effect,F423K

row,effect of a mutation on the interaction,Variant
1,with no effect,F423E
2,with no effect,F423A
3,with no effect,S427K
4,with no effect,S427A
5,with no effect,S427E
6,with no effect,F418A
7,with no effect,F418E
8,with no effect,F418K
9,disrupting interaction strength,A459K
10,with no effect,A459E
11,with no effect,T410K
12,with no effect,T410E
13,with no effect,T410A
14,with no effect,S433K
15,with no effect,S433A
16,with no effect,S433E
17,with no effect,D409K
18,with no effect,D409A
19,with no effect,D409E
20,disrupting interaction strength,P447K
21,disrupting interaction strength,P447E
22,with no effect,P447A
23,with no effect,K449E
24,with no effect,K449A
25,with no effect,I404A

row,effect of a mutation on the interaction,Variant
1,disrupting interaction strength,I404K
2,with no effect,I404E
3,with no effect,I417E
4,with no effect,I417A
5,with no effect,I417K
6,with no effect,P448K
7,with no effect,P448E
8,with no effect,P448A
9,with no effect,A414E
10,with no effect,A414K
11,with no effect,P452E
12,with no effect,P452A
13,with no effect,P452K
14,disrupting interaction strength,L402K
15,disrupting interaction strength,L402A
16,disrupting interaction strength,L402C
17,with no effect,L402E
18,with no effect,L416E
19,with no effect,L416A
20,with no effect,L416K
21,with no effect,G421E
22,with no effect,G421A
23,with no effect,G421K
24,disrupting interaction strength,I445E
25,with no effect,I445K

row,effect of a mutation on the interaction,Variant
1,disrupting interaction strength,I445A
2,disrupting interaction strength,V453K
3,with no effect,V453E
4,with no effect,V453A
5,with no effect,V429E
6,with no effect,V429K
7,with no effect,V429A
8,disrupting interaction strength,S440A
9,disrupting interaction strength,S440F
10,disrupting interaction strength,S440E
11,with no effect,S440K
12,disrupting interaction strength,L457C
13,disrupting interaction strength,L457E
14,with no effect,L457A
15,disrupting interaction strength,L457K
16,with no effect,H428A
17,with no effect,H428K
18,with no effect,H428E
19,with no effect,F460A
20,with no effect,F460E
21,with no effect,V415E
22,with no effect,V415A
23,with no effect,V415K
24,with no effect,E426A
25,with no effect,E426K
